Data from the Immune Epitope Database (IEDB).
pKd: −log10 of the molar value.

Columns and labels:
HLA-A*01:01 = assay: IEDB peptide-MHC binding, purified MHC/direct/fluorescence; filed as Kd, often an IC50 or EC50 that approximates it; ≥ and ≤ were set here for values at or beyond the usual limits of such assays
HLA-A*02:01 = assay: as above
HLA-A*03:01 = assay: as above
HLA-A*11:01 = assay: as above
HLA-A*26:01 = assay: as above; conditions: source organism: Corynebacterium glutamicum
HLA-A*31:01 = assay: as above
HLA-A*69:01 = assay: as above
HLA-B*07:02 = assay: as above; conditions: source organism: Corynebacterium glutamicum
HLA-B*08:01 = assay: as above
HLA-B*15:01 [1] = assay: as above
HLA-B*27:05 = assay: as above
HLA-B*40:01 = assay: as above
HLA-B*58:01 = assay: as above
HLA-B*15:42 = assay: IEDB peptide-MHC binding, purified MHC/competitive/fluorescence; filed as Kd, often an IC50 or EC50 that approximates it; ≥ and ≤ were set here for values at or beyond the usual limits of such assays
HLA-B*45:06 = assay: as above
HLA-B*83:01 = assay: as above
HLA-B*08:02 = assay: IEDB peptide-MHC binding, purified MHC/direct/fluorescence; filed as Kd, often an IC50 or EC50 that approximates it; ≥ and ≤ were set here for values at or beyond the usual limits of such assays; conditions: source organism: Mycobacterium tuberculosis str. Haarlem
HLA-B*18:01 = assay: as above; conditions: source organism: Mycobacterium tuberculosis
HLA-B*46:01 = assay: as above; conditions: source organism: Mycobacterium tuberculosis
HLA-B*48:01 = assay: as above; conditions: source organism: Mycobacterium tuberculosis
HLA-B*51:01 = assay: as above; conditions: source organism: Mycobacterium tuberculosis
HLA-B*57:01 = assay: as above; conditions: source organism: Mycobacterium tuberculosis
HLA-A*30:01 = assay: IEDB peptide-MHC binding, purified MHC/competitive/fluorescence; filed as Kd, often an IC50 or EC50 that approximates it; ≥ and ≤ were set here for values at or beyond the usual limits of such assays; conditions: source organism: Mycobacterium tuberculosis C
HLA-B*15:01 [2] = assay: as above; conditions: source organism: Mycobacterium tuberculosis C
HLA-B*15:17 = assay: IEDB peptide-MHC binding, purified MHC/direct/fluorescence; filed as Kd, often an IC50 or EC50 that approximates it; ≥ and ≤ were set here for values at or beyond the usual limits of such assays; conditions: source organism: Mycobacterium tuberculosis
[3] = source organism: Corynebacterium glutamicum
[4] = source organism: Corynebacterium glutamicum ATCC 13032
[5] = source organism: Mycobacterium tuberculosis
[6] = source organism: Mycobacterium tuberculosis str. Haarlem
[7] = source organism: Mycobacterium tuberculosis C

Row | Sequence | pKd (HLA-A*01:01; [5]) | pKd (HLA-A*02:01; [5]) | pKd (HLA-A*03:01; [5]) | pKd (HLA-A*11:01; [5]) | pKd (HLA-A*31:01; [5]) | pKd (HLA-A*69:01; [5]) | pKd (HLA-B*08:01; [6]) | pKd (HLA-B*18:01) | pKd (HLA-B*27:05; [5]) | pKd (HLA-B*40:01; [5]) | pKd (HLA-B*46:01) | pKd (HLA-B*48:01) | pKd (HLA-B*51:01) | pKd (HLA-B*57:01) | pKd (HLA-B*58:01; [5]) | pKd (HLA-B*15:42; [7]) | pKd (HLA-B*45:06; [7]) | pKd (HLA-B*83:01; [7]) | other results
1 | AEHDPWWAV |  |  |  |  |  |  |  |  |  |  |  |  |  |  |  |  |  |  | pKd (HLA-A*01:01; [3]): ≤ 4.70; pKd (HLA-A*02:01; [3]): ≤ 4.70; pKd (HLA-A*03:01; [3]): ≤ 4.70; pKd (HLA-A*11:01; [3]): ≤ 4.70; pKd (HLA-A*26:01): ≤ 4.70; pKd (HLA-A*31:01; [3]): ≤ 4.70; pKd (HLA-A*69:01; [3]): ≤ 4.70; pKd (HLA-B*07:02): 5.05; pKd (HLA-B*08:01; [3]): ≤ 4.70; pKd (HLA-B*15:01 [1]; [3]): ≤ 4.70; pKd (HLA-B*27:05; [3]): ≤ 4.70; pKd (HLA-B*40:01; [3]): 7.26; pKd (HLA-B*58:01; [3]): ≤ 4.70; pKd (HLA-B*15:42; [4]): ≤ 5.30; pKd (HLA-B*45:06; [4]): ≤ 5.30; pKd (HLA-B*83:01; [4]): ≤ 5.30
2 | APRARTAAF | ≤ 4.70 | ≤ 4.70 | ≤ 4.70 | ≤ 4.70 | ≤ 4.70 | ≤ 4.70 | 8.30 | 4.91 | ≤ 4.70 | ≤ 4.70 | ≤ 4.70 | ≤ 4.70 | ≤ 4.70 | ≤ 4.70 | ≤ 4.70 | ≤ 5.30 | ≤ 5.30 | 7.28 | pKd (HLA-B*08:02): 6.64; pKd (HLA-A*30:01): ≤ 4.70; pKd (HLA-B*15:01 [2]): ≤ 4.70
3 | APRGFRAAF | ≤ 4.70 | ≤ 4.70 | ≤ 4.70 | ≤ 4.70 | ≤ 4.70 | ≤ 4.70 | 7.00 | ≤ 4.70 | ≤ 4.70 | ≤ 4.70 | ≤ 4.70 | ≤ 4.70 | ≤ 4.70 | ≤ 4.70 | ≤ 4.70 | ≤ 5.30 | ≤ 5.30 | 7.42 | pKd (HLA-B*15:01 [1]; [5]): ≤ 4.70; pKd (HLA-B*15:17): 5.26
